The text below walks through data of patent publication US20240002491A1, “METHODS FOR SELECTING PATIENTS FOR TREATMENT WITH AN NGF ANTAGONIST” (Regeneron Pharmaceuticals, Inc., priority 2022, published 2024).

For data set [1], the system named is patients with OA of the knee and/or hip. As to the kind of experiment: ISS post-hoc analysis combining OA joint burden and alkaline phosphatase cut-off (weeks 8-16). In kind it is in vivo, human. An excerpt: Both the baseline burden of OA and the change in alkaline phosphatase identify patients with higher risk of AA/DA/JR; these findings are observed only in the fasinumab arms, not the placebo arm, indicating an NGF-specific mechanism. The results raise the possibility of excluding high-risk patients and treating only patients with lower risk of joint-related adverse events, using more than one approach. To understand whether there is an interaction between the two approaches, and to explore a number of potential risk mitigation options, a post-hoc analysis was performed on the ISS data set to examine the impact of alkaline phosphatase within various joint subgroups. Because efficacy was preserved in the 1-2 and 3-4 joint subgroups as discussed above, the rates of AA/DA/JR were examined in overlapping subgroups: patients with 1-2, 1-3 and 1-4 joints with OA at baseline. For each of these subgroups, five potential cut-offs for change in alkaline phosphatase were explored: no change, 5-, 10-, 15- and 20-point change from baseline.
FIGS. 8A-8D show the percentage of patients with AA/DA/JR following exclusion of those who have a change in alkaline phosphatase at or above the designated cut-off at any time between weeks 8 and 16. In each of FIGS. 8A-8D, the X-axis represents overlapping bins of patients that become successively smaller as one looks left to right (percentage of the total population remaining in each bin is shown in the table beneath the graph). […] The next 5 bins to the right show the rates of AA/DA/JR in the patients who remain after excluding those above the designated cut-off for change in alkaline phosphatase. The placebo rate from the total ISS population is expressed as a solid black line.
For each of the joint related adverse events, the burden of OA and change in alkaline phosphatase are complementary from the perspective of risk-reduction. FIGS. 8A, 8C, and 8E show the reduction of risk of JR, AA, and DA, respectively, in patients treated with 1 mg fasinumab Q8W, for patients with different OA burden at different cut-off values for change in alkaline phosphatase. Similarly, FIGS. 8B, 8D, and 8F show the reduction of risk of JR, AA, and DA, respectively, in patients treated with 1 mg fasinumab Q4W, for patients with different OA burden at different cut-off values for change in alkaline phosphatase. For example, for the 1Q4 treatment arm and in the 1-2 joint subgroup, the JR rate is reduced from 7.4% in the total ISS population, to 6.4% in the 1-2 joint subgroup, to 5.5% in the population below the 20-point alkaline phosphatase cut-off—a difference of 0.4% from the ISS placebo rate (FIG. 8B). Similarly, for the 1Q4 treatment arm and in the 1-2 joint subgroup, the overall AA rate (70-80% RPDA-1) is reduced from 9.2% in the total ISS population, to 7.7% in the 1-2 joint subgroup, to 7.1% in the population below the 20-point alkaline phosphatase cut-off—a difference of 5.6% from the ISS placebo rate (FIG. 8D). Last, the DA rate is reduced from 0.5% in the total ISS population, to 0.3% in the 1-2 joint subgroup, to 0.1% in the population below the 20-point alkaline phosphatase (FIG. 8F).

In data set [2] the test system is adults with moderate-to-severe chronic pain associated with osteoarthritis (OA) of the knee or hip. As to the kind of experiment: FACT OA2 (NCT03304379, R475-OA-1688) Phase 3 trial, WOMAC pain and physical function. In kind it is in vivo, human. An excerpt:
(§1) NCT02683239 (R475-PN-1523, or “FACT LTS”), NCT03161093 (R475-OA-1611, or “FACT OA1”), and NCT03304379 (R475-OA-1688, or “FACT OA2”) each were Phase 3 trials evaluating fasinumab in adults with moderate-to-severe chronic pain associated with osteoarthritis (OA) of the knee or hip. All three of these trials enrolled patients with OA of the knee or hip who had inadequate pain relief with acetaminophen and were intolerant to or had inadequate pain relief with opioids, or were unwilling or unable to take opioids. Complete inclusion and exclusion criteria for the trials are described at clinicaltrials.gov/ct2/show/NCT03161093, clinicaltrials.gov/ct2/show/NCT03304379, and clinicaltrials.gov/ct2/show/NCT02683239.
FACT OA1 and FACT OA2 assessed the efficacy of fasinumab in comparison to nonsteroidal anti-inflammatory drugs (NSAIDs; naproxen, diclofenac, or celecoxib) for treatment of OA. FACT OA1 includes results from a total of 1,801 patients randomized to one of four treatment arms: fasinumab 1 mg SC once every 8 weeks (Q8W) (n=304), fasinumab 1 mg SC once every 4 weeks (Q4W) (n=639), naproxen 500 mg twice daily (n=644), or placebo (n=214). In FACT OA2, patients were randomized into one of six treatment groups: fasinumab 1 mg SC once every 4 weeks (Q4W), fasinumab 3 mg SC once every 4 weeks (Q4W), fasinumab 6 mg SC once every 8 weeks (Q8W), celecoxib 200 mg once daily, diclofenac 75 mg twice daily, or placebo. While the FACT OA2 trial was still ongoing, enrollment into the fasinumab 3 mg Q4W and 6 mg Q8W groups was stopped for safety considerations; patients enrolled in those dose regimens discontinued study drug and entered the post-treatment follow-up period.
Fasinumab patients in both trials also reported improvements in their pain and physical function (WOMAC score) compared to those treated with the highest-approved prescription doses of NSAIDS.

Data set [3] has as its system alkaline phosphatase. To be noted: cited from earlier work.
The subject of data set [4] is adults with moderate-to-severe chronic pain associated with osteoarthritis (OA) of the knee or hip. As to the kind of experiment: Adjudicated arthropathies across the three fasinumab Phase 3 trials. To be noted: across all three Phase 3 trials. In kind it is in vivo, human.
Source text: as §1
The FACT LTS study evaluated the long-term safety and tolerability of fasinumab, including adverse events of special interest such as joint damage (e.g. arthropathies), compared with placebo. A total of 2,411 patients were randomized to one of the following treatment arms: (1) fasinumab 1 mg subcutaneous (SC) every 8 weeks (Q8W); (2) fasinumab 1 mg SC every 4 weeks (Q4W); or (3) matching placebo SC Q4W. This study also included a substudy evaluating the efficacy of fasinumab in these same patient groups (n=215 in fasinumab 1 mg Q8W, n=217 in fasinumab 1 mg Q4W, n=214 in placebo).

Setting [5] is: 1Q4, 1-2 joint subgroup, below the 20-point alkaline phosphatase cut-off.
Where [6] appears, read: 1Q4, 1-2 joint subgroup, lower cut-offs for change in alkaline phosphatase.
Where [7] appears, read: FACT OA2, Week 24, fasinumab 1 mg Q4W, diclofenac 2 × 75 mg/day or celecoxib 200 mg/d.
[8] abbreviates: FACT OA2, Week 24, fasinumab 1 mg Q4W, nominal p < 0.0001.

Turning to “Fasinumab: fully-human high-affinity monoclonal antibody directed against NGF; HCVR/LCVR SEQ ID NOs: 2/10”, the “DA rate, difference from placebo rate” value in data set [1] (1 mg Q4W, alkaline phosphatase cut-off of 20) came out at 0.1%. In data set [1] (setting [5]), the DA rate came out at 0.1%; the JR rate turned out to be 5.5%; the “JR rate, difference from the ISS placebo rate” value is given as 0.4%; the “overall AA rate” value worked out at 7.1%. Moreover, the “overall AA rate, difference from the ISS placebo rate” value in data set [1] (setting [5]) is 5.6%. In data set [1] (setting [6]), the “overall AA rate” value is 4.6%; the “overall AA rate, difference from the placebo rate” value was determined as 2.5%; the “rates of JR and DA” value was “approximately the placebo rates”. Further, in data set [1] (1Q4, total ISS population), the DA rate was determined as 0.5%, the JR rate is 7.4% and the “overall AA rate” value is on record as 9.2%. Also, in data set [2] (setting [7]), the “WOMAC pain, change from baseline” value was −42%; the “WOMAC pain, change from baseline (score, in brackets)” value was “(−2.79)”; the “WOMAC physical function, change from baseline” value is on record as −39%; the “WOMAC physical function, change from baseline (score, in brackets)” value is on record as “(−2.63)”. In data set [2] (setting [8]), the “WOMAC pain, difference vs. placebo” value is recorded as −0.79 and the “WOMAC physical function, difference vs. placebo” value is −0.82. Moreover, in data set [2] (FACT OA2, Week 24, fasinumab 1 mg/month, nominal p = 0.0152), the “WOMAC physical function, difference vs. diclofenac/celecoxib” value is −0.36. The “WOMAC pain, difference vs. diclofenac/celecoxib” value in data set [2] (FACT OA2, Week 24, fasinumab 1 mg/month, nominal p = 0.0503) is −0.30. Besides, in data set [2] (FACT OA2, fasinumab 1 mg Q4W, p<0.01 for all endpoints), the “co-primary endpoints: pain and physical function compared to placebo” value was “significantly reduced pain and improved physical function compared to placebo”. The “mean increase in alkaline phosphatase following initiation of therapy” value in data set [3] (depending upon dose) is 5 to 10 U/L. Moreover, in data set [3] (following initiation of therapy), the “time of peak of the mean increase in alkaline phosphatase” value is given as “approximately 16 weeks”. Besides, the “rates of adjudicated arthropathies compared with placebo or NSAIDs” value in data set [4] is given as “higher rates of arthropathies were adjudicated in patients treated with fasinumab compared with placebo or NSAIDs, which were dose-dependent”.
